Measured values from patent US20250297005A1 (FORTVITA BIOLOGICS SINGAPORE PTE, published 2025).

Legend:
[1] = target: T1, human CLDN18.2 on cells (HEK293-hCLDN18.2, DAN-G-hCLDN18.2, NUGC-4) (human, UniProt P56856-2 1-261); assay: cell-based or functional assay
T1 sequence (looked up): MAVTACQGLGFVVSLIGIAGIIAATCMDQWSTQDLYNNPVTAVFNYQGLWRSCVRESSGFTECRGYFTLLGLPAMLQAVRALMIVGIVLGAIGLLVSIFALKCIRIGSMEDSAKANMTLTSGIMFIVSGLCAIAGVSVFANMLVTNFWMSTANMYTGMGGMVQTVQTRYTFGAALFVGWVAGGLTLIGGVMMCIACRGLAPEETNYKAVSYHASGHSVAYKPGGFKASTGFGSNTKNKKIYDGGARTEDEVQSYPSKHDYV

[2] = target: T1, human CLDN18.2 on cells …; assay: flow cytometry of hybridoma supernatant on HEK293-hCLDN18.2 cells
Procedure: In the present invention, H2L2 fully human antibody transgenic mice (purchased from Harbour BioMed) were immunized with the cells obtained in Example 1 (CHO-hCLDN18.2) by using the hybridoma technology. Spleen cells from the mice were then harvested and electrofused with myeloma cells. […] The test cells (HEK293-hCLDN18.2) obtained in Example 1 were counted, diluted to 1×10⁶ cells/mL, and then added to a U-bottom 96-well plate at 100 µL/well. The cells were centrifuged at 500 g for 5 min, and the cell medium was removed. The hybridoma culture supernatant in a 96-well plate was added to the U-bottom plate at 100 μL/well, the cells were resuspended, and the suspension was left to stand on ice for 30 min. The suspension was centrifuged at 500 g for 5 min, the supernatant was removed, and the cells were washed once with PBS. 100 μL of FITC-labeled anti-mouse Fab secondary antibody (1:500 dilution in PBS) was added to each well, and 100 μL of FITC-labeled anti-human Fab secondary antibody was added to the positive control antibody. The resulting mixture was incubated on ice in the dark for 30 min. The mixture was centrifuged at 500 g for 5 min, the supernatant was removed, and the cells were washed once with PBS. The cells were resuspended in 50 μL of 1×PBS, and the suspension was loaded for FACS assay. […]

| Binder | EC50 of in vitro T cell (PBMC) killing of gastric cancer cells NUGC-4 [1] | EC50 of in vitro T cell (PBMC) killing of pancreatic cancer cells DAN-G-hCLDN18.2 [1] | binding result [2] |
| --- | --- | --- | --- |
| bispecific antibody 030 (anti-CLDN18.2 moiety HB37A6 x anti-CD3 moiety HzSP34.24) (bispecific antibody, human IgG1, kappa, lambda, L234A L235A) heavy 1: not shown light 1: not shown heavy 2: not shown light 2: QAVVTQEPSLTVSPGGTVTLTCRSSTGAVTTSNYANWVQQKPGQAPRGLIGGTNKRAPGVPARFSGSLLGDKAALTLLGAQPEDEAEYYCALWYSNLWVFGQGTKLTVLGQPKAAPSVTLFPPSSEELQANKATLVCLISDFYPGAVTVAWKADSSPVKAGVETTTPSKQSNNKYAASSYLSLTPEQWKSHRSYSCQVTHEGSTVEKTVAPTECS | < 1 pM | < 0.1 pM | – |
| bispecific antibody 032 (anti-CLDN18.2 moiety HB37A6 x anti-CD3 moiety HzSP34.87) (bispecific antibody, human IgG1, kappa, lambda, L234A L235A) heavy 1: not shown light 1: not shown heavy 2: not shown light 2: QAVVTQEPSLTVSPGGTVTLTCRSSTGAVTTSNYANWVQQKPGQAPRGLIGGTNKRAPGVPARFSGSLLGDKAALTLLGAQPEDEAEYYCALWYSNLWVFGQGTKLTVLGQPKAAPSVTLFPPSSEELQANKATLVCLISDFYPGAVTVAWKADSSPVKAGVETTTPSKQSNNKYAASSYLSLTPEQWKSHRSYSCQVTHEGSTVEKTVAPTECS | < 1 pM | < 0.1 pM | – |
| fully human antibody clone HB37A6 (hybridoma culture supernatant) (antibody, V domains shown, Tested as hybridoma supernatant from H2L2 transgenic mice; also called anti-CLDN18.2 antibody) VH: EVQLLDSGGGLVQPGGSLRLSCAASGFTFSSYVMSWVRQAPGKGLNWVSTISHSGGSTYYADSVKGRFTISRDNSKNTLYLQMNSLRAEDTAVYYCAIDAPYYDILTGYRYWGQGTLVTVSS VL: not shown | – | – | binds |
